From patent publication US20120034160A1 (AbbVie / Abbott, published 2012) come the findings set out here.

One may read the Kd as the constant that tells how readily two partners part at equilibrium. One may read the koff as the rate constant with which the complex falls apart. In general, kon refers to the second-order rate constant of association.

Positions count from the first letter of the chain named. Where “and” joins values, the source holds several entries; their conditions need not be identical. Identical values can stand only once. Where only a bound is given, the exact number is not on record here.

Assay [1] has as its target T1, Recombinant Human IL-1β (human, UniProt P01584 117-269).
T1 construct: Bought reagent; also called IL-1B
The assay is described as follows: Biacore SPR. As for the experimental part:
(§1) The BIACORE assay (Biacore, Inc, Piscataway, N.J.) determines the affinity of antibodies or DVD-Ig with kinetic measurements of on-rate and off-rate constants. Binding of antibodies or DVD-Ig to a target antigen (for example, a purified recombinant target antigen) was determined by surface plasmon resonance-based measurements with a Biacore® 1000 or 3000 instrument (Biacore® AB, Uppsala, Sweden) using running HBS-EP (10 mM HEPES [pH 7.4], 150 mM NaCl, 3 mM EDTA, and 0.005% surfactant P20) at 25° C. All chemicals were obtained from Biacore® AB (Uppsala, Sweden) or otherwise from a different source as described in the text. For example, approximately 5000 RU of goat anti-mouse IgG, (Fcγ), fragment specific polyclonal antibody (Pierce Biotechnology Inc, Rockford, Ill.) diluted in 10 mM sodium acetate (pH 4.5) was directly immobilized across a CM5 research grade biosensor chip using a standard amine coupling kit according to manufacturer's instructions and procedures at 25 μg/ml. Unreacted moieties on the biosensor surface were blocked with ethanolamine. Modified carboxymethyl dextran surface in flowcell 2 and 4 was used as a reaction surface. Unmodified carboxymethyl dextran without goat anti-mouse IgG in flow cell 1 and 3 was used as the reference surface. For kinetic analysis, rate equations derived from the 1:1 Langmuir binding model were fitted simultaneously to association and dissociation phases of all eight injections (using global fit analysis) with the use of Biaevaluation 4.0.1 software. Purified antibodies or DVD-Ig were diluted in HEPES-buffered saline for capture across goat anti-mouse IgG specific reaction surfaces. Antibodies or DVD-Ig to be captured as a ligand (25 μg/ml) were injected over reaction matrices at a flow rate of 5 μl/min. The association and dissociation rate constants, kₒₙ (M⁻¹s⁻¹) and koff (s⁻¹) were determined under a continuous flow rate of 25 μl/min. Rate constants were derived by making kinetic binding measurements at different antigen concentrations ranging from 10−200 nM. The equilibrium dissociation constant (M) of the reaction between antibodies or DVD-Igs and the target antigen was then calculated from the kinetic rate constants by the following formula: KD=koff/kₒₙ. Binding was recorded as a function of time and kinetic rate constants are calculated.
Background: Surface plasmon resonance follows binding to a sensor surface in real time, without labels.

Assay [2] deals with T1, Recombinant Human IL-1β. The assay is described as follows: cell-based or functional assay.
For assay [3], the target named is T2, Recombinant Human IL-1β (human, UniProt P01584 117-269).
T2 construct: bought reagent; also called IL-1B
Description: Biacore SPR. As for the experimental part: as §1

For assay [4], the target named is T3, Recombinant Human IL-17 (human, UniProt Q16552 20-155, limits assumed).
T3 sequence (looked up): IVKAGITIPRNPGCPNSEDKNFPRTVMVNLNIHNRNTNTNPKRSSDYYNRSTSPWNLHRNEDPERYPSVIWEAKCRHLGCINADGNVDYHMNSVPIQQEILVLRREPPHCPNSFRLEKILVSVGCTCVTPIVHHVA
The assay is described as follows: cell-based or functional assay.

Assay [5] concerns the target T1, Recombinant Human IL-1β. The assay is described as follows: Biacore SPR; C-terminal VD. The method in brief: (§2)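 First, goat anti-mouse IgG was immobilized on a CM5 chip by amine coupling. Next, test antibody or DVD-Ig (25 μg/ml) was captured. Then antigen at 10−200 nM flowed over at 25 μl/min, 25° C. Finally, association and dissociation phases were globally fitted to a 1:1 model.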

In assay [6] the target is T3, Recombinant Human IL-17. Description: Biacore SPR; N-terminal VD. In short, it runs like this:
as §2

Assay [7] deals with T4, Recombinant Human IL-17 (human, UniProt Q16552 20-155, limits assumed).
T4 construct: bought reagent
T4 sequence (looked up): T3 sequence (looked up)
Description: Biacore SPR. The procedure:
as §1

For assay [8], the target named is T3, Recombinant Human IL-17. The assay is described as follows: Biacore SPR. As for the experimental part:
as §1

Assay [9] has as its target T3, Recombinant Human IL-17. Description: Biacore SPR; later run, parent printed with DVD1639-DVD1648; kon 4.70E+06, koff 8.50E-05. The procedure: (§3) The BIACORE assay (Biacore, Inc, Piscataway, N.J.) determines the affinity of antibodies or DVD-Ig with kinetic measurements of on-rate and off-rate constants. Binding of antibodies or DVD-Ig to a target antigen (for example, a purified recombinant target antigen) was determined by surface plasmon resonance-based measurements with a Biacore® 1000 or 3000 instrument (Biacore® AB, Uppsala, Sweden) using running HBS-EP (10 mM HEPES [pH 7.4], 150 mM NaCl, 3 mM EDTA, and 0.005% surfactant P20) at 25° C. All chemicals were obtained from Biacore® AB (Uppsala, Sweden) or otherwise from a different source as described in the text. […] The association and dissociation rate constants, kₒₙ (M⁻¹s⁻¹) and koff (s⁻¹) were determined under a continuous flow rate of 25 μl/min. […] The equilibrium dissociation constant (M) of the reaction between antibodies or DVD-Igs and the target antigen was then calculated from the kinetic rate constants by the following formula: KD=koff/kₒₙ. Binding was recorded as a function of time and kinetic rate constants are calculated.

Assay [10] concerns the target T4, Recombinant Human IL-17. The assay is described as follows: Biacore SPR; first run, parent printed with DVD1282-DVD1291; kon 2.80E+03, koff 2.40E-05. As for the experimental part: as §3

B1: AB270 (antibody, human IgG1, kappa, V domains shown)
VH: EVQLQESGPGLVKPSETLSLTCTVSGFSLSDYGVSWIRQPPGKGLEWLGLIWGGGDTYYNSPLKSRLTISKDNSKSQVSLKLSSVTAADTAVYYCAKQRTLWGYDLYGMDYWGQGTLVTVSS
VL: DTQVTQSPSSLSASVGDRVTITCITSTDIDVDMNWYQQKPGKPPKLLISQGNTLRPGVPSRFSSSGSGTDFTFTISSLQPEDFATYYCLQSDNLPLTFGQGTKLEIKR
notes: Parent antibody
For the molecule B1, in assay [1], the Kd amounted to 0.08 nM, the dissociation rate constant (koff) turned out to be 0.00053 s⁻¹ and the kon was 6.6e+06 M⁻¹ s⁻¹. The “IL-1β Neutralization Assay EC50” value in [2] stood at 0.245 nM.

B2: AB272 (antibody, human IgG1, kappa, V domains shown)
VH: EVQLVESGGGLVQPGGSLRLSCAVSGFTLSDYGVSWIRQAPGKGLEWLGLIWGGGDTYYNSPLKSRLTISKDNSKSTVYLQMNSLRAEDTAVYYCAKQRTLWGYDLYGMDYWGQGTLVTVSS
VL: B1 VL with D1E, Q3T
notes: constants by vectors: V1 wt hIgG1, V2 kappa
On to B2, for which, in assay [3], the dissociation constant (Kd) was 0.14 nM and 0.12 nM; the koff was 0.00053 s⁻¹ and 0.00066 s⁻¹ and 0.00056 s⁻¹; the kon is 3.9e+06 M⁻¹ s⁻¹ and 5.3e+06 M⁻¹ s⁻¹ and 4e+06 M⁻¹ s⁻¹.

B3: AB271 (antibody, human IgG1, kappa, V domains shown)
VH: B1 VH
VL: DTVVTQSPAFLSVTPGEKVTITCITSTDIDVDMNWYQQKPDQPPKLLISQGNTLRPGVPSRFSSSGSGTDFTFTISSLEAEDAATYYCLQSDNLPLTFGQGTKLEIKR
notes: Parent antibody
In the case of B3, in assay [1], the dissociation constant Kd came out at 0.11 nM, the koff is 0.00051 s⁻¹ and the kon was 4.6e+06 M⁻¹ s⁻¹. Further, the “IL-1β Neutralization Assay EC50” value in assay [2] was 0.308 nM.

B4: AB270 (antibody, human IgG1, kappa, V domains shown)
VH: B1 VH
VL: B1 VL
notes: as for B2
On to B4, for which, in [3], the Kd was 0.089 nM and 0.082 nM and 0.08 nM; the koff was 0.00058 s⁻¹ and 0.00055 s⁻¹ and 0.00053 s⁻¹; the kon was 6.5e+06 M⁻¹ s⁻¹ and 6.7e+06 M⁻¹ s⁻¹ and 6.6e+06 M⁻¹ s⁻¹.

B5: AB272 (antibody, human IgG1, kappa, V domains shown)
VH: B2 VH
VL: B1 VL with D1E, Q3T
notes: Parent antibody
As for B5, in assay [1], the Kd is 0.14 nM, the koff turned out to be 0.00056 s⁻¹ and the kon stood at 4e+06 M⁻¹ s⁻¹. The “IL-1β Neutralization Assay EC50” value in [2] is 0.298 nM.

B6: AB271 (antibody, human IgG1, kappa, V domains shown)
VH: B1 VH
VL: B3 VL
notes: as for B2
On to B6, for which, in [3], the Kd is 0.11 nM and 0.096 nM; the koff was 0.00055 s⁻¹ and 0.00057 s⁻¹ and 0.00051 s⁻¹; the kon was 5.1e+06 M⁻¹ s⁻¹ and 6e+06 M⁻¹ s⁻¹ and 4.6e+06 M⁻¹ s⁻¹.

B7: DVD1648 (bispecific antibody, human IgG1, kappa)
heavy: not shown
light: EIVLTQSPDFQSVTPKEKVTITCRASQNIGSELHWYQQKPDQSPKLLIKYASHSISGVPSRFSGSGSGTDFTLTINGLEAEDAATYYCHQSDTLPHTFGQGTKVDIKRTVAAPETTVTQSPSSLSASVGDRVTITCITSTDIDVDMNWYQQKPGKPPKLLISQGNTLRPGVPSRFSSSGSGTDFTFTISSLQPEDFATYYCLQSDNLPLTFGQGTKLEIKRTVAAPSVFIFPPSDEQLKSGTASVVCLLNNFYPREAKVQWKVDNALQSGNSQESVTEQDSKDSTYSLSSTLTLSKADYEKHKVYACEVTHQGLSSPVTKSFNRGEC
notes: DVD-Ig: outer AB275, inner AB272; V1/V2 vectors: wild type hIgG1, kappa
Turning to B7, the “C-Terminal VD IL-1β Neutralization Assay EC50” value in assay [2] was determined as 16.2 nM. Besides, the “N-terminal VD IL-17 Neutralization Assay EC50” value in assay [4] was 0.0089 nM. In assay [5], the Kd stood at 0.56 nM, the koff stood at 0.00075 s⁻¹ and the kon came out at 1.3e+06 M⁻¹ s⁻¹. In assay [6], the Kd stood at 0.02 nM, the koff is 6.2e-05 s⁻¹ and the kon worked out at 3.1e+06 M⁻¹ s⁻¹.

B8: AB273 (antibody, human IgG1, kappa, V domains shown)
VH: EVQLVQSGAEVKKPGSSVKVSCKASGYTFTDYEIHWVRQAPGQGLEWMGVNDPESGGTFYNQKFDGRVTLTADESTSTAYMELSSLRSEDTAVYYCTRYSKWDSFDGMDYWGQGTTVTVSS
VL: DIQMTQSPSSLSASVGDRVTITCRASSGIISYIDWFQQKPGKAPKRLIYATFDLASGVPSRFSGSGSGTDYTLTISSLQPEDFATYYCRQVGSYPETFGQGTKLEIKR
notes: as for B2
Consider B8, for which, in assay [7], the koff is ≤ 1e-05 s⁻¹ and 1.2e-05 s⁻¹ and 1.3e-05 s⁻¹.

B9: AB274 (antibody, human IgG1, kappa, V domains shown)
VH: EVQLVQSGAEVKKPGSSVKVSCKASGGSFGGYGIGWVRQAPGQGLEWMGGITPFFGFADYAQKFQGRVTITADESTTTAYMELSGLTSDDTAVYYCARDPNEFWNGYYSTHDFDSWGQGTTVTVSS
VL: EIVLTQSPDFQSVTPKEKVTITCRASQDIGSELHWYQQKPDQPPKLLIKYASHSTSGVPSRFSGSGSGTDFTLTINGLEAEDAGTYYCHQTDSLPYTFGPGTKVDIKR
notes: Parent antibody
On to B9, for which, in assay [8], the Kd was 0.0068 nM, the koff came out at 1.8e-05 s⁻¹ and the kon was determined as 2.7e+06 M⁻¹ s⁻¹. For the same molecule, the “IL-17 Neutralization Assay EC50” value in assay [4] was 0.002 nM.

B10: AB274 (antibody, human IgG1, kappa, V domains shown)
VH: B9 VH
VL: B9 VL
notes: as for B2
Consider B10, for which the koff in [7] was 2e-05 s⁻¹ and 2.1e-05 s⁻¹ and 1.8e-05 s⁻¹.

B11: AB275 (antibody, human IgG1, kappa, V domains shown)
VH: EVQLVQSGAEVKKPGESVKISCKASGGSFRSYGISWVRQAPGQGLEWMGGITHFFGITDYAQKFQGRVTITADESTTTAYMELSGLTSDDTAVYYCAREPNDFWNGYYDTHDFDSWGQGTTVTVSS
VL: B9 VL with D28N, P43S, T55I, G84A, T91S, S93T, Y96H, P100Q
notes: Parent antibody
Take B11: in [8], the koff came to 8.5e-05 s⁻¹ and the kon was 4.7e+06 M⁻¹ s⁻¹. In assay [4], the “IL-17 Neutralization Assay EC50” value amounted to 0.0032 nM. Further, the Kd in assay [9] stood at 0.018 nM.

B12: AB275 (antibody, human IgG1, kappa, V domains shown)
VH: B11 VH
VL: B9 VL with D28N, P43S, T55I, G84A, T91S, S93T, Y96H, P100Q
notes: as for B2
Take B12: the figures for the Kd in assay [7] and in assay [10] were 0.019 nM and 8.8 nM, respectively.
